Laboratory results published in article PMC10318527, “Utilization of dietary mixed-linkage β-glucans by the Firmicute Blautia producta” (The Journal of Biological Chemistry, 2023).

How the values were obtained:
[1] = substrate: OC[C@H]1O[C@@H](O[C@H]2[C@H](O)[C@@H](O)[C@H](O[C@H]3[C@H](O)[C@@H](CO)OC(O)[C@@H]3O)O[C@@H]2CO)[C@H](O)[C@@H](O)[C@@H]1O; experiment: Phosphorolysis kinetics of BpGH94MLG (PAHBAH assay); assay type: biochemical, Blautia producta ATCC 27340; conditions: other: phosphorolytic reaction, pH 6.5, 37.0 °C
Experimental: (§1) TLC was used for analyzing enzymatic actions. […] Kinetics parameters for BpGH94MLG were determined with G4G3G, G4G4G3G and cellotriose, following a p-hydroxybenzoic acid hydrazide (PAHBAH) reducing sugar assay ([69]).

[2] = substrate: OC[C@H]1O[C@@H](O[C@H]2[C@H](O)[C@@H](O)[C@H](O[C@H]3[C@H](O)[C@@H](O)C(O)O[C@@H]3CO)O[C@@H]2CO)[C@H](O)[C@@H](O)[C@@H]1O; experiment: as above; assay type: biochemical, Blautia producta ATCC 27340; conditions: other: phosphorolytic reaction, pH 6.5, 37.0 °C
Experimental: as §1

[3] = substrate: OC[C@H]1O[C@@H](O[C@H]2[C@H](O)[C@@H](O)[C@H](O[C@H]3[C@H](O)[C@@H](O)[C@H](O[C@H]4[C@H](O)[C@@H](CO)OC(O)[C@@H]4O)O[C@@H]3CO)O[C@@H]2CO)[C@H](O)[C@@H](O)[C@@H]1O; experiment: as above; assay type: biochemical, Blautia producta ATCC 27340; conditions: other: phosphorolytic reaction, pH 6.5, 37.0 °C
Experimental: as §1

[4] = substrate: OC[C@H]1O[C@@H](O[C@@H]2[C@@H](O)[C@H](O[C@H]3[C@H](O)[C@@H](CO)OC(O)[C@@H]3O)O[C@H](CO)[C@H]2O)[C@H](O)[C@@H](O)[C@@H]1O; experiment: purified protein, by the assay type; assay type: biochemical, Blautia producta ATCC 27340; conditions: other: PAHBAH assay, 100 mM HEPES pH 6.5, 37 °C
Experimental: (§2) 150 μl of a freshly prepared 8:2 mixture of reagent A (50 mM sodium sulfite, 0.3 M 4-hydroxybenzhydrazide and 0.6 M HCl) and reagent B (50 mM trisodium citrate, 10 mM CaCl2, 0.5 M NaOH) were added to 50 μl sample. The reaction cocktail was boiled for 10 min at 100 °C. After the reaction was cooled down, the absorbance was recorded at 410 nm using the SpectraMax i3x multi-mode microplate reader. A calibration curve with different concentrations of glucose (0, 2, 4, 8, 16, 40, 80, 100, 200, 300, and 500 μM) was employed for each experiment to calculate the released amount of glucose (reducing end equivalents). The same samples were also used for control measurement, and the control value was subtracted from test reading prior to calculate kinetics parameters. In all cases, the Km, Vmax, and kcat were analyzed on GraphPad Prism. Three independent replicates were used for each test. TLC analyses were used for understanding the enzymatic degradation profiles of various oligosaccharides.

[5] = substrate: OC[C@H]1O[C@@H](O[C@H]2[C@H](O)[C@@H](O)[C@H](O[C@H]3[C@H](O)[C@@H](CO)OC(O)[C@@H]3O)O[C@@H]2CO)[C@H](O)[C@@H](O)[C@@H]1O; experiment: purified protein, by the assay type; assay type: biochemical, Blautia producta ATCC 27340; conditions: other: PAHBAH assay, 100 mM HEPES pH 6.5, 37 °C
Experimental: as §2

[6] = substrate: OC[C@H]1O[C@@H](O[C@H]2[C@H](O)[C@@H](O)[C@H](O[C@H]3[C@H](O)[C@@H](O)[C@H](O[C@H]4[C@H](O)[C@@H](CO)OC(O)[C@@H]4O)O[C@@H]3CO)O[C@@H]2CO)[C@H](O)[C@@H](O)[C@@H]1O; experiment: purified protein, by the assay type; assay type: biochemical, Blautia producta ATCC 27340; conditions: other: PAHBAH assay, 100 mM HEPES pH 6.5, 37 °C
Experimental: as §2

[7] = substrate: O=C[C@H](O)[C@@H](O)[C@H](O[C@@H]1O[C@H](CO)[C@@H](O)[C@H](O)[C@H]1O)[C@H](O)CO; experiment: purified protein, by the assay type; conditions: other: PAHBAH assay, 100 mM HEPES pH 6.5, 37 °C
Experimental: as §2

[8] = substrate: OC[C@H]1O[C@@H](O[C@@H]2[C@@H](O)[C@H](O[C@H]3[C@H](O)[C@@H](CO)OC(O)[C@@H]3O)O[C@H](CO)[C@H]2O)[C@H](O)[C@@H](O)[C@@H]1O; experiment: purified protein, by the assay type; conditions: other: PAHBAH assay, 100 mM HEPES pH 6.5, 37 °C
Experimental: as §2

[9] = substrate: OC[C@H]1O[C@@H](O[C@H]2[C@H](O)[C@@H](CO)OC(O)[C@@H]2O)[C@H](O)[C@@H](O)[C@@H]1O; experiment: purified protein, by the assay type; conditions: other: PAHBAH assay, 100 mM HEPES pH 6.5, 37 °C
Experimental: as §2

[10] = substrate: OC[C@H]1O[C@@H](O[C@H]2[C@H](O)[C@@H](O)[C@H](O[C@H]3[C@H](O)[C@@H](CO)OC(O)[C@@H]3O)O[C@@H]2CO)[C@H](O)[C@@H](O)[C@@H]1O; experiment: purified protein, by the assay type; conditions: other: PAHBAH assay, 100 mM HEPES pH 6.5, 37 °C
Experimental: as §2

[11] = substrate: OC[C@H]1O[C@@H](O[C@H]2[C@H](O)[C@@H](O)[C@H](O[C@H]3[C@H](O)[C@@H](O)C(O)O[C@@H]3CO)O[C@@H]2CO)[C@H](O)[C@@H](O)[C@@H]1O; experiment: purified protein, by the assay type; conditions: other: PAHBAH assay, 100 mM HEPES pH 6.5, 37 °C
Experimental: as §2

[12] = substrate: OC[C@H]1O[C@@H](O[C@H]2[C@H](O)[C@@H](O)[C@H](O[C@H]3[C@H](O)[C@@H](O)[C@H](O[C@H]4[C@H](O)[C@@H](CO)OC(O)[C@@H]4O)O[C@@H]3CO)O[C@@H]2CO)[C@H](O)[C@@H](O)[C@@H]1O; experiment: purified protein, by the assay type; conditions: other: PAHBAH assay, 100 mM HEPES pH 6.5, 37 °C
Experimental: as §2

[13] = substrate: OC[C@H]1O[C@@H](O[C@H]2[C@H](O)[C@@H](O)[C@H](O[C@H]3[C@H](O)[C@@H](O)[C@H](O[C@H]4[C@H](O)[C@@H](O)C(O)O[C@@H]4CO)O[C@@H]3CO)O[C@@H]2CO)[C@H](O)[C@@H](O)[C@@H]1O; experiment: purified protein, by the assay type; conditions: other: PAHBAH assay, 100 mM HEPES pH 6.5, 37 °C
Experimental: as §2

B1: BpGH94MLG (Blautia producta) (protein)
chain: MKYGYFDEEKKEYVITRPDTPAPWVNYLGSPEYGAIISNNAGGYSFEKSGANGRILRYVFNNFDQPGRYIYIRDQENKDFWSASWQPVGKPQDVYQCECRHGTAYTNMRAEYSEISSEVLYYVPLGAAYEVWRLRLTNNSDRPRNLCVTGYAEFTNNSNYEQDQVNLQYSQFITQTAFRGNRICQMIHANLDQLEPGKDVDDKQVTERFFGLAGNPVTSWCGDKDGFLGRYHGYDAPKGVIEGKLSCLPNYNGNGCGALSSDFVLKPGEAKEVVFVLGMKKDAEVEEILKRYEIPETVCREEFHKLVKYWHGYLSHFQVKTPSREFNTMVNTWNAYNCFMTFIWSRAASFIYCGLRNGYGYRDTVQDIQGIIHLAPDMALEKIRFMLSAQADNGGGLPLVKFTHNPGHEDTPDDASYVKETGHPAYRADDALWLFPTVYKYIAETGNMDFIDEVIPFANRGKATVYEHLKRAVKFSMDHLGRHGMPAGLYADWNDCLRLGKDGESTFVAMQFYYAMTILKKFAKYKKDVEYMEFLCERQKKLEELIQKFCWDEGRFIRGFTENGEIIGKSTDPEANMWLNPQSWAVISGVANEEQADRVLDVVEKRLNTEYGLVLMDPPYHAHAFDGALAVIYNPGTKENAGIFSQSQGWIILAEALRGHGERAFTYFMENAPAAQNDRADIRKLEPYCYGQFTEGKDSPNFGRSHVHWLTGTASTIMVGCVEGILGIRPDFYGIRLAPAIPKEWEEYEVEKDFRGCHLHIKVKNPGHVESGCEKLVVNGNVVTGSYIPADLLTEQTDIELFIS
For B1, the Km [1] was 52 ± 5 µM, the kcat [1] was 1.86 ± 0.022 s⁻¹ and the kcat/Km [1] was 35700 M⁻¹ s⁻¹. For the same protein, the Km [2] was 28 ± 4 µM, the kcat [2] was 0.67 ± 0.021 s⁻¹ and the kcat/Km [2] was 23900 M⁻¹ s⁻¹. For the same protein, the Km [3] was 21 ± 2 µM, the kcat [3] was 1.21 ± 0.014 s⁻¹ and the kcat/Km [3] was 57600 M⁻¹ s⁻¹.

B2: BpGH3-AR8MLG (Blautia producta ATCC 27340 = DSM 2950) (protein)
chain: MKLKNKTFTGTTSNEVTARETENRKLARLAAAEGFVLLKNQDHILPLKKGIKLGLYGAGAVKTIKGGTGSGDVNERECVNICQGLENAGYEITSSAWLEAYASLYEETRLKWRDEILGKLEAYDNNFFEAYSTTPFFMPCGNPVDVDKASDDGADTAIYVLSRIAGENADRHDTEGDYYISAEEKALIAQLSKAYDSLVLVINTGGLVDLAFVQEFDNIKAVLQFVQAGQEGGSAFADVVSGKVTPSGKLADTWAFDYKDYPNSETFSFKNGDVNTEKYQEGIYVGYRYFDTFDVPVLYPFGFGLSYTDFMICTEEIKTVNTESGKPEIAVTVKVTNTGDTYCGKEVVQIYVSCPQGKLAKEYRRLAGFAKTEELKPGESCRITITFPVYQLASFHEENAAWVLEEGTYGVWTGNSIQGAKLAGSLCVDKDAILVQCEHICPVKEELTELTPDSSRMKEKEAAWLEKAAGLPSVHIDAEKITKETVVYTELPERFTGRAGEIVESLSVEQLIQMSAGDPGKGQDAVLGSAGITVPGAAAETSSAASGEPWNLPSIALADGPAGLRLNQKYQVVDGEIVRENFMKSIEKGFFAEPSPEVGTAYYQFCTAIPVGTLLAQTWNAELVKEVGEMIGKEMELFQVTLWLAPGMNIHRNPLCGRNFEYYSEDPLLSGIMASAMTLGVQKVPGCGTTIKHFACNNQEDNRMGSDSVLSERALREIYLKGFEIAVKNSQPMSIMTSYNMINGVHAANCYDICTRAARDEWEFAGAVMTDWTTTFASPRGECTAAGCMRAGNDMVMPGIPKDHENIRRELEEGTLDIRELKRCICNTVNLILQSNRYENAVSYLEQFEGLDAYLSVERSN
B2 showed a Km [4] of 230 ± 50 µM, a kcat [4] of 12 ± 0.2 s⁻¹ and a kcat/Km [4] of 52000 M⁻¹ s⁻¹. It also gave a kcat [5] of 17 ± 0.3 s⁻¹, a kcat/Km [5] of 71000 M⁻¹ s⁻¹ and a Km [6] of 300 ± 40 µM. The kcat [6] was 20 ± 0.3 s⁻¹ and the kcat/Km [6] was 67000 M⁻¹ s⁻¹.

B3: BpGH3-X62MLG (Blautia producta ATCC 27340 = DSM 2950) (protein)
chain: MENKYVIDWDKYAALARRAAAEGAVLLKNDNQALPLKKETISVFGRIQYHYYKSGTGSGGLVNAKYVIGIMDALQEEKDLTLDEELAAVYRSWIMEHPFDQGSGWAQEPWSQEEMPLDEKMVEEAAARSDTAVIVIGRTAGEDRDASAEKGSYLLTDLEEDMLEKVCRLFKKSIVVLNVGNIIDMKWVEKYNPSAVLYTWQGGQEGGHSAADVLTGRVNPCGKLADTIARDISDYPSTENFGGGDFDIYAEDIYVGYRYFETFARDKVLYPFGFGLSYTSFRTECGPIKRLDGETSVCVKVTNAGSCAGKEVVQMYVEPPQGKLGKPSRNLAAFAKTKCLQPGESQELVLKVTDYYISSYDDSGAAGFKSCYVLENGSYGIYVGTDVRGAEAAGSFYIPETIATSVCTEAAGPVRQFKRMRAKEGGALAWEEAPLRTHKMQERIHKEILPDITYTGNKGFTLGEVFDRDISLNEFLAQLSEEDLCCIVRGEGMCSPKVTPGTAAAFGGVTESLQKLGIPCGCCADGPSGIRMDCGTPAFSMPNGTCLACTFDTELSEELYEMEGAELRKNRIDTLLGPGINIHRNPLNGRNFEYFSEDPYLTGIMASAQLKGMARFGVTGTIKHFAANNQEYHRRLLDSVMSERALREIYLRGFEIAVKEGKAYSIMTTYGAINGLWTASNYDLLTTILRKEWGFEGMVMTDWWADLNDEGGQPSTDNLAAMVRSQNDVYMVTQDSLNNKDNLMESLKNGTLKRGALLRCAGNICRMLMRSPVMERTLGRMSEEEKKAGEVMAGEDKVDFDITYHKVQGSLVLDGTKIDTSKGNSVVYGILLDTFGSYKVRLKVKADSGELAQIPVSVFANGHLEGTVTINGTKGEWIEIEKTIGPLFGPHNYVRLYFAQSGMQIQTVTIELQEKMDRGF
B3 was tested, and the Km [7] was 200 ± 30 µM, the kcat [7] was 8 ± 0.01 s⁻¹ and the kcat/Km [7] was 38000 M⁻¹ s⁻¹. It also gave a kcat [8] of 12 ± 0.2 s⁻¹, a kcat/Km [8] of 51000 M⁻¹ s⁻¹ and a kcat [9] of 12 ± 0.2 s⁻¹. For the same protein, the kcat/Km [9] was 48000 M⁻¹ s⁻¹, the Km [10] was 230 ± 40 µM and the kcat [10] was 17 ± 0.3 s⁻¹. The kcat/Km [10] was 73000 M⁻¹ s⁻¹, the Km [11] was 260 ± 30 µM and the kcat [11] was 15 ± 0.2 s⁻¹. The kcat/Km [11] was 59000 M⁻¹ s⁻¹, the Km [12] was 250 ± 50 µM and the Km [13] was 450 ± 60 µM. It also gave a kcat [13] of 19 ± 0.3 s⁻¹ and a kcat/Km [13] of 43000 M⁻¹ s⁻¹.
